# Test results from patent US20100047228.
# Tested on: delta-plasminogen
# Sequence (chain, as listed by the source mutant): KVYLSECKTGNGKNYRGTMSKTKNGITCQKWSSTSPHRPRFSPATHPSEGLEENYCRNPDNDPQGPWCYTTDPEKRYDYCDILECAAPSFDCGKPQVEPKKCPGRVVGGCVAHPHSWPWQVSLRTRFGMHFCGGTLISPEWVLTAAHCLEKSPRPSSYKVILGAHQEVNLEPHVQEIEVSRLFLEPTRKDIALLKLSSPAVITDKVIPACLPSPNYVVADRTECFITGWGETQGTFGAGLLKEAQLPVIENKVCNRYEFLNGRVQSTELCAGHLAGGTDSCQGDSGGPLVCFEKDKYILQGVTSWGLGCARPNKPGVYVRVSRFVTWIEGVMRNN
substance,measurement,value
urokinase,conversion of one-chain delta-plasminogen into two-chain delta-plasmin (reduced SDS-PAGE),delta-plasminogen indeed can be activated by all three plasminogen activators
